Target: Turkey gizzard myosin, dephosphorylated (turkey)
Assay: electron microscopy with streptavidin-gold labelling

“Turkey gizzard myosin biotinylated with NHS-LC-biotin (complex)” was tested, and the percent of the filaments that contained gold particles after 24 h was over 95%.
